Data taken from the nanobody polyreactivity screen of Harvey et al. (2022).

experiment: yeast display, Sf9 membrane polyspecificity reagent, FACS + sequencing; frameworks hold sequencing errors
How it was run: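 Genes from sorted yeast were amplified by colony PCR, read by MiSeq 2 × 250 sequencing and filtered on CDR length. These cells carried a synthetic nanobody library in Saccharomyces cerevisiae BJ5465 and were sorted by FACS into low and high (top ~1%) gates on anti-HA and streptavidin fluorescence. Polyreactivity is labelled according to the gate of origin.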

Question: Which “polyreactivity (PSR sort gate)” value does the source give for “QVQLVESGGGLVQAGGSLRLSCAASGRTFYGYAMGWYRQAPGKERELVASISRDGSTNDADSVKGRFTISRDNAKNTVYLQMNRLKPEDTEVYYCAADIWYYRYPIYYYSYDYWGQGTQVTVSS” here?
Answer: low polyreactivity

Question: For “QVQLVESGGGLVQAGGSLRLSCAASGRTFYGYAMGWYRQAPGNERELVATITRRGGSTYYADSVKGRFRISRDNAKNTVYLQMNSLKPEDTAVYYCARQGDQYYRDGDDYWGQGTQVTVSS”, which “polyreactivity (PSR sort gate)” value is on record?
Answer: high polyreactivity

Question: With “QVQLVESGGGLVQAGGSLRLSCAASGRTFYGYDMGWYRQAPGKERELVATISSGGSTNYADSVKGRFTISRDNAKNTVYLQMHSLKPEDTAVYYCIARRFSGYRKGLRPYGSGMNYWGQGTQVTVSS” as the sequence, how does the “polyreactivity (PSR sort gate)” value read?
Answer: low polyreactivity

Question: Which “polyreactivity (PSR sort gate)” value does the source give for “QVQLVESGGGLVQAGGSLRLSCAASGRTFYIYAMGWYRQAPGKERELVAAISTRDTRTYYADSVKGRFTISRDNAKNTVYLQMNSLKPEDTAVYYCAADAVDRDSDYWGQGTQVTVSS” here?
Answer: high polyreactivity

Question: Which “polyreactivity (PSR sort gate)” value does the source give for “QVQLVESGGGLVQAGGSLRLSCAASGRTFYIYAMGWYRQAPGKERELVAAITRGGGSTSYADSVKGRFTISRDNAKNTVYLQMNSLKPEDTAVYYCAARYYFRWRRYDYWGQGTQVTVSS” here?
Answer: high polyreactivity

Question: With “QVQLVESGGGLVQAGGSLRLSCAASGRTFYIYAMGWYRQAPGKERELVAAITWRGGRTYYADSVKGRFTISRDNAKNTVYLQMNSLKPVDTAVYYCNARSWYSFHPHDYWGQGTQVTVSS” as the sequence, how does the “polyreactivity (PSR sort gate)” value read?
Answer: high polyreactivity

Question: For “QVQLVESGGGLVQAGGSLRLSCAASGRTFYIYAMGWYRQAPGKERELVADITSGGSTYYADSVKGRFTISRDNAKNTVYLQMNSLKPEDTAVYYCAADWVTFYSYTEYDYWGQGTQVTVSS”, which “polyreactivity (PSR sort gate)” value is on record?
Answer: low polyreactivity

Question: Which “polyreactivity (PSR sort gate)” value does the source give for “QVQLVESGGGLVQAGGSLRLSCAASGRTFYIYAMGWYRQAPGKERELVAGITYSGGRTYYADSVKGRFTISRDNAKNTVYLQMNSLKPEDTAVYYCAARPYLTTEGPYNYWGQGTQVTVSS” here?
Answer: low polyreactivity

Question: With “QVQLVESGGGLVQAGGSLRLSCAASGRTFYIYAMGWYRQAPVKERELVAAITYGGGRTFYADSVKGRFTISRDNAKNTVYLKMNSLKPEDTAVYYCARGDFYYHSRYTYYTSDYWGQGTQVTVSS” as the sequence, how does the “polyreactivity (PSR sort gate)” value read?
Answer: high polyreactivity

Question: For “QVQLVESGGGLVQAGGSLRLSCAASGRTFYKYAMGWYRPAPGKERELVAAISGSGGGTYYADSVKGRFTISRDNAKNTVYLQMNSLKPEDTAVYYCAAVYLYYAYAFDYWGQGTHVTVSS”, which “polyreactivity (PSR sort gate)” value is on record?
Answer: high polyreactivity

Question: For “QVQLVESGGGLVQAGGSLRLSCAASGRTFYKYAMGWYRQAPGKERELVAAISKSGGRTYYADSVKGRFTISRDNAKNTVYLQLNSLKPEDTAVYYCAAEPFIPDQSRYYYWGQGTQVTVSS”, which “polyreactivity (PSR sort gate)” value is on record?
Answer: high polyreactivity

Question: With “QVQLVESGGGLVQAGGSLRLSCAASGRTFYLNAMGWYRQAPGKERQLVAVISYRGDSTYADSVKGRFTISRDNAKNTVYLQMNSLKPEDTAVYYCAADLTRYHYRYLVTHWWYDYWGQGTQVTVSS” as the sequence, how does the “polyreactivity (PSR sort gate)” value read?
Answer: low polyreactivity

Question: Which “polyreactivity (PSR sort gate)” value does the source give for “QVQLVESGGGLVQAGGSLRLSCAASGRTFYLYTMGWYRQAPGKERELVAAINGSGGSTYYADSVKGRFTISRDNAKNTVYLQMNSLKPEATAVYYCAVLYRYGYDYWGQGTQVTVSS” here?
Answer: low polyreactivity

Question: For “QVQLVESGGGLVQAGGSLRLSCAASGRTFYNAMGWYRQAPGKERELVAGIRWSGASTYYADSVKGRFTISRDNAKNTVYLQMNSLKPEDTAVYYCAARRHSTRLRLTYDYWGQGTQVTVSS”, which “polyreactivity (PSR sort gate)” value is on record?
Answer: high polyreactivity

Question: Which “polyreactivity (PSR sort gate)” value does the source give for “QVQLVESGGGLVQAGGSLRLSCAASGRTFYNNAMGWYRPAPGKERELVAVISGRGGSTYYADSVKGRFTISRDNAKNTVYLQMNSLKPEDTAVYYCAAGYTRPWRFTYYYWGQGTQVTVSS” here?
Answer: high polyreactivity

Question: Which “polyreactivity (PSR sort gate)” value does the source give for “QVQLVESGGGLVQAGGSLRLSCAASGRTFYNTMGLYRQAPGKERELVAAISRGGITNYADSVKGRFTISRDSAKNTGDLQMHSLKPEDTAVYYCNAEPKRYYYYYKFDSWGQGTQVTVSS” here?
Answer: high polyreactivity

Question: For “QVQLVESGGGLVQAGGSLRLSCAASGRTFYPNAMGWSRQAPGKERELVAAINSGGSTYYADSVKGRFTISRDNAKNTVYLQMNSLKPEDTAVYYCNAERRIAYEYWGQGTQVTVSS”, which “polyreactivity (PSR sort gate)” value is on record?
Answer: low polyreactivity

Question: Which “polyreactivity (PSR sort gate)” value does the source give for “QVQLVESGGGLVQAGGSLRLSCAASGRTFYPNAMGWYRQAPGKEREFVARISDSGGSTYYADSVKGRFTISRDNAKNTVYLLMNSLKPEDTAVYYCAADYGDPRVNEYDYWGQGTQVTVSS” here?
Answer: low polyreactivity

Question: With “QVQLVESGGGLVQAGGSLRLSCAASGRTFYPSAMGWYRQAPGKERQLVAAITTSGGRTYYADSVKGRFTISRDNAKNTVYLQMNSLKPEDTAVYYCAKAYREGEGKFDYWGQGTQVTVSS” as the sequence, how does the “polyreactivity (PSR sort gate)” value read?
Answer: high polyreactivity

Question: With “QVQLVESGGGLVQAGGSLRLSCAASGRTFYPYAKGWYRQAPGKERELVAAIRWSGGSTYYADSVKGRFTISRDNAKNTVYLQMNSLKPEDTAVYYCNADWKSYRGPKFDYWGQGTQVTVSS” as the sequence, how does the “polyreactivity (PSR sort gate)” value read?
Answer: low polyreactivity

Question: Which “polyreactivity (PSR sort gate)” value does the source give for “QVQLVESGGGLVQAGGSLRLSCAASGRTFYPYAMGWYRQAPGKARELVASINWSGASTYYADSVKGRFTISRDNAKNTVYLQMNSLKPEDTAVYYCAARYTPRRYYYWGQGTHVTVSS” here?
Answer: high polyreactivity

Question: For “QVQLVESGGGLVQAGGSLRLSCAASGRTFYPYAMGWYRQAPGKERELVAAISSGGGSTYYADSVKGRFTISRDNAKNTVYLQMNSLKPEDTAVYYCAKRAGWAGWYYRNDYWGQGTQVTVSS”, which “polyreactivity (PSR sort gate)” value is on record?
Answer: high polyreactivity

Question: Which “polyreactivity (PSR sort gate)” value does the source give for “QVQLVESGGGLVQAGGSLRLSCAASGRTFYPYGMGWYRQAPGKERELVATITTGGSTNYADSVKGRFTISRDNAKTTVYLQMNSLKPEDTAVYYCAAKTRIRYYSWGQGTQVTVSS” here?
Answer: low polyreactivity

Question: Which “polyreactivity (PSR sort gate)” value does the source give for “QVQLVESGGGLVQAGGSLRLSCAASGRTFYQYYMGWYRQSPGKEREVVAAIDWSGGSTYYADSVKGRFTISRDNAKNTVYLQMNSLKPEDTAVYYCNADAYPHPVVGYDYWGQGTQVTVSS” here?
Answer: low polyreactivity

Question: Which “polyreactivity (PSR sort gate)” value does the source give for “QVQLVESGGGLVQAGGSLRLSCAASGRTFYRNAMGWYRQAPGKERELVAAIRGSGSSTYYADSVKGRFTISRDNAKNTVYLQMNSLKPEDTAVYYCAADYITYNGYARYYYWGQGTQVTVSS” here?
Answer: high polyreactivity

Question: For “QVQLVESGGGLVQAGGSLRLSCAASGRTFYRNPMGWYRQAPGKEWELVAGITRCGRTYYADSVKGRFRISRDNAKNTVYLQMNCLKPEDTAVYYCNKTGGNGNDYWGQGTQVTVSS”, which “polyreactivity (PSR sort gate)” value is on record?
Answer: low polyreactivity

Question: Which “polyreactivity (PSR sort gate)” value does the source give for “QVQLVESGGGLVQAGGSLRLSCAASGRTFYRNTMGWYRQAPGKERELVAGISYSGGSTYYADSVKGRFTISRDNAKNTVYLQMNSLKPEDTAVYYCATVRRYGYGYDYWGQGTQVTVSS” here?
Answer: high polyreactivity

Question: For “QVQLVESGGGLVQAGGSLRLSCAASGRTFYRYAMGWYRQAPGKERELVAAITTSGGSTYYADSVKGRFTISRDNAKNTVYLQMNSLKPEDTAVYYCAATYYGYHIRDDYWGQGTQVTVSS”, which “polyreactivity (PSR sort gate)” value is on record?
Answer: low polyreactivity

Question: For “QVQLVESGGGLVQAGGSLRLSCAASGRTFYRYAMGWYRQAPGKERELVARIRSGGSTNYADSVKGRFTISRDNAKNTVYLQMNSLKPEDTAVYYCAARPGAAGYKYYYWGQGTQVTVSS”, which “polyreactivity (PSR sort gate)” value is on record?
Answer: high polyreactivity

Question: With “QVQLVESGGGLVQAGGSLRLSCAASGRTFYRYAMGWYRQAPGKERELVARITSGSSTNYADSVKGRFTISRDNAKNTVYLQMNSLKPEDTAVYYCAKDPRPYLDYDYWGQGTQVTVSS” as the sequence, how does the “polyreactivity (PSR sort gate)” value read?
Answer: low polyreactivity

Question: For “QVQLVESGGGLVQAGGSLRLSCAASGRTFYRYTMGWYRQAPGTERELVAAISWSGGSTYYADSVKGRFTSSRDNAKNTVYLQMNSLKPEDTAVYYCAKATYWLYVQWYTYGYWGQGTQVTVSS”, which “polyreactivity (PSR sort gate)” value is on record?
Answer: high polyreactivity

Question: With “QVQLVESGGGLVQAGGSLRLSCAASGRTFYRYVMGWYRQAPGKERELVATITNGGSTNYADSVKGRFTISRYNAKNTVYLQMNSLKPEDTAVYYCAADYPGYVGWPYSYEYYYWGQCTQVTVSS” as the sequence, how does the “polyreactivity (PSR sort gate)” value read?
Answer: low polyreactivity

Question: For “QVQLVESGGGLVQAGGSLRLSCAASGRTFYSNTMGWYRQAPGNERELVAAISRSGVGTYYADSVKGRFTISRDIAKNSVYLHMNSLKPEDTAVYYCAALPTGKSGYLYDYWGQGTQVTVSS”, which “polyreactivity (PSR sort gate)” value is on record?
Answer: high polyreactivity

Question: With “QVQLVESGGGLVQAGGSLRLSCAASGRTFYSYAMGWYRPAPGKERELVAAINSGGDTYYADSVKGRFTISRDNAKNTVYLQMNSLKPEDTAVYYCAADYYWEMDSWGQGTQVTVSS” as the sequence, how does the “polyreactivity (PSR sort gate)” value read?
Answer: low polyreactivity

Question: Which “polyreactivity (PSR sort gate)” value does the source give for “QVQLVESGGGLVQAGGSLRLSCAASGRTFYSYAMGWYRQAPGKERELVAAITWRASTYYADSVKGRFTISRDNAKNTVYLQMNSLKPEDTAVYYCAVRDYRPRYYTFLYNSPYDYWGQGTQVTVSS” here?
Answer: high polyreactivity

Question: Which “polyreactivity (PSR sort gate)” value does the source give for “QVQLVESGGGLVQAGGSLRLSCAASGRTFYSYAMGWYRQAPGKERELVAGITWSGTSTYYADSVKGRFTISRDNAKNTVYLQMNSLKPEDTAVYYCAAATLYSRYDYWGQGSQVTVSS” here?
Answer: low polyreactivity

Question: Which “polyreactivity (PSR sort gate)” value does the source give for “QVQLVESGGGLVQAGGSLRLSCAASGRTFYSYTMGWYRQAPGKERELVAAINRGGSTYYADSVKGRFTISRDNAKNTVYLQMNSLYPVDNAVYYCAVGYAHSSNRRYYYKQTHGYWGQGTQVTVSS” here?
Answer: low polyreactivity

Question: For “QVQLVESGGGLVQAGGSLRLSCAASGRTFYSYVMGWYRQAPGKERELVAAISGRGVSTYYADSVKGRFTISRDNAKNTVYLQMNSLKPEDTAVYYCAAETVHGSADFDYWGQGTQVTVSS”, which “polyreactivity (PSR sort gate)” value is on record?
Answer: low polyreactivity

Question: For “QVQLVESGGGLVQAGGSLRLSCAASGRTFYTNAMGRYRQAPGKERELVAAISRGGGRTYYADSVKGRFTISRDNAKNTVYLQMNSLKPEDTAVYYCAASPYQGQGREYYYWGQGTQVTVSS”, which “polyreactivity (PSR sort gate)” value is on record?
Answer: high polyreactivity

Question: With “QVQLVESGGGLVQAGGSLRLSCAASGRTFYTNAMGWYRQAPGKERELVAAISRGGGRTYYADSVKGRFTISRDNAKNTVYLQMNSLKPEDTAVYYCAASPYQGQGREYYYWGQGTQVTVSS” as the sequence, how does the “polyreactivity (PSR sort gate)” value read?
Answer: high polyreactivity

Question: With “QVQLVESGGGLVQAGGSLRLSCAASGRTFYTNAMGWYRQAPGKERELVASISGSGGSTYYADSVKGRFTISRDNAKNTVYLQMNSLKPEDTAVYYCAADPAPTVEFGKYDYWGQGTQVTVSS” as the sequence, how does the “polyreactivity (PSR sort gate)” value read?
Answer: low polyreactivity

Question: With “QVQLVESGGGLVQAGGSLRLSCAASGRTFYTYAMGLYRQAPGNERELVATITSGGSTYYADSVKGRFTISRDNAKNTVYLQMNSLKPEDTAVYYCARRRRESRQDGDYWVQGTQVTVSS” as the sequence, how does the “polyreactivity (PSR sort gate)” value read?
Answer: high polyreactivity

Question: With “QVQLVESGGGLVQAGGSLRLSCAASGRTFYTYAMGWYRQAPGKERELVAAISSSGSTYYADSVKGRFTISRDNAKNTVYLQMNSLKPEDTAVYYCNARTSRYRRGGDSWGQGTQVTVSS” as the sequence, how does the “polyreactivity (PSR sort gate)” value read?
Answer: high polyreactivity
